IC50 data for nine molecules are collected here from US20160272680A1 (Bristol-Myers Squibb, published 2016).

Assay [1] deals with T1, hPDL1(19-239)-TVMV-His (human, UniProt Q9NZQ7 19-239).
T1 construct: Expressed in HEK293T cells; The text says amino acids 18-239, but the construct is named hPD-L1(19-239); The whole entry, including the TVMV site and His tag, is the protein used in the assay; also called PD-L1-TVMV-His; PD-L1-His
Briefly: HTRF competition of PD-1-Ig binding to PD-L1-His; code B=0.004-0.0099 µM. As to the method:
(§1) Homogenous Time-Resolved Fluorescence (HTRF) Assays of Binding of Soluble PD-1 to Soluble PD-L1. Soluble PD-1 and soluble PD-L1 refers to proteins with carboxyl-end truncations that remove the transmembrane-spanning regions and are fused to heterologous sequences, specifically the Fc portion of the human immunoglobuling G sequence (Ig) or the hexahistidine epitope tag (His). All binding studies were performed in an HTRF assay buffer consisting of dPBS supplemented with 0.1% (w/v) bovine serum albumin and 0.05% (v/v) Tween-20. For the PD-1-Ig/PD-L1-His binding assay, inhibitors were pre-incubated with PD-L1-His (10 nM final) for 15 m in 4 μl of assay buffer, followed by addition of PD-1-Ig (20 nM final) in 1 μl of assay buffer and further incubation for 15 m. PD-L1 fusion proteins from either human, cynomologous macaques, mouse, or other species were used. HTRF detection was achieved using europium crypate-labeled anti-Ig monoclonal antibody (1 nM final) and allophycocyanin (APC) labeled anti-His monoclonal antibody (20 nM final). Antibodies were diluted in HTRF detection buffer and 5 μl was dispensed on top of binding reaction. The reaction was allowed to equilibrate for 30 minutes and signal (665 nm/620 nm ratio) was obtained using an EnVision fluorometer. Additional binding assays were established between PD-1-Ig/PD-L2-His (20 and 5 nM, respectively), CD80-His/PD-L1-Ig (100 and 10 nM, respectively) and CD80-His/CTLA4-Ig (10 and 5 nM, respectively). Binding/competition studies between biotinylated Compound No. 71 and human PD-L1-His were performed as follows. Macrocyclic peptide inhibitors were pre-incubated with PD-L1-His (10 nM final) for 60 minutes in 4 μl of assay buffer followed by addition of biotinylated Compound No. 71 (0.5 nM final) in 1 μl of assay buffer. Binding was allowed to equilibrate for 30 minutes followed by addition of europium crypated labeled Streptavidin (2.5 pM final) and APC-labeled anti-His (20 nM final) in 5 μl of HTRF buffer. The reaction was allowed to equilibrate for 30 m and signal (665 nm/620 nm ratio) was obtained using an EnVision fluorometer.

For assay [2], the target named is T1, hPDL1(19-239)-TVMV-His. Kind of assay: HTRF competition of PD-1-Ig binding to PD-L1-His. As to the method: as §1, with “The reaction was allowed to equilibrate for 30 m and signal (665 nm/620 nm ratio) was obtained using an EnVision fluorometer.” left out

Numbered stars: 1 amine (or outer) side, 2 acyl side, 3 side chain; on linkers, the order of the positions; unused ones are H or OH. Bridge positions count the residues as written; N and C are the ends. Square brackets hold non-standard residues; d marks the D form. * marks the point of attachment. Trp(1-CH2CO) = O=C([C@H](Cc1cn(CC(=O)[*:3])c2ccccc12)N[*:1])[*:2]; Hyp = O=C(O)[C@@H]1C[C@@H](O)CN1; NMeNle = CCCC[C@H](NC)C(=O)O; NMeA = CN[C@@H](C)C(=O)O; Dab = NCC[C@H](N)C(=O)O; Dap = NC[C@H](N)C(=O)O; NHBn = c1ccc(CN*)cc1

T1 sequence (Q9NZQ7 other isoform, or with tags, fused parts or gaps limits assumed): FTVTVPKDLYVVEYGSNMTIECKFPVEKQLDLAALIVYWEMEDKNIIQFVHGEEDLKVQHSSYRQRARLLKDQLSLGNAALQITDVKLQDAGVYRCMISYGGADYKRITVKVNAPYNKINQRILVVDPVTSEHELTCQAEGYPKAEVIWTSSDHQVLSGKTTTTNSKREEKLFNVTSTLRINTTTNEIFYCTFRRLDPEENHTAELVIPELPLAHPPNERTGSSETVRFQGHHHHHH

The term IC50 denotes the concentration needed to halve the response being measured. Higher therefore signals a need for much substance. With {CH2CO}-Y[NMeA]NP[Dap]L[Hyp]WGW[NMeNle][NMeNle]LCG-{piperazin‑2‑one} (thioether N-14, Macrocyclic peptide) [Example 13114], the IC50 in assay [1] lay in the range of 4 to 9.9 nM.

B1: Example 13080 (peptide)
peptide: {CH2CO}-Y[NMeA]NP[Dap]L[Hyp]W[Dab][Trp(1-CH2CO)][NMeNle][NMeNle]LCG-NHBn
modifications: thioether N-14
SMILES: CCCC[C@H]1C(=O)N(C)[C@@H](CCCC)C(=O)N[C@@H](CC(C)C)C(=O)N[C@H](C(=O)NCC(=O)NCc2ccccc2)CSCC(=O)N[C@@H](Cc2ccc(O)cc2)C(=O)N(C)[C@@H](C)C(=O)N[C@@H](CC(N)=O)C(=O)N2CCC[C@H]2C(=O)N[C@@H](CN)C(=O)N[C@@H](CC(C)C)C(=O)N2C[C@H](O)C[C@H]2C(=O)N[C@@H](Cc2c[nH]c3ccccc23)C(=O)N[C@@H](CCN)C(=O)N[C@@H](Cc2cn(CC(=O)O)c3ccccc23)C(=O)N1C
notes: Macrocyclic peptide
Molecule B1 showed an IC50 in assay [1] of 4 to 9.9 nM.
For the molecule {CH2CO}-Y[NMeA]NP[Dap]L[Hyp]WGW[NMeNle][NMeNle]LCG-{methyl 3‑aminopropionate} (thioether N-14, Macrocyclic peptide) [Example 13105], the IC50 in assay [2] is 10 nM.
In assay [1], {CH2CO}-Y[NMeA]NP[Dap]L[Hyp]WGW[NMeNle][NMeNle]LCG-phenylpiperazine (thioether N-14, Macrocyclic peptide) [Example 13117] gave an IC50 of 4 to 9.9 nM.
The same measure, in the same setting: as for {CH2CO}-Y[NMeA]NP[Dap]L[Hyp]WGW[NMeNle][NMeNle]LCG-{piperidin‑1‑yl amide} (thioether N-14, Macrocyclic peptide) [Example 13086], the figure is 4 to 9.9 nM.
On to {CH2CO}-Y[NMeA]NP[Dap]L[Hyp]WGW[NMeNle][NMeNle]LCG-{N‑(3-aminopropyl)morpholine amide} (thioether N-14, Macrocyclic peptide) [Example 13093], for which the IC50 in assay [2] stood at 8.17 nM. This counts as single-digit nanomolar.
In the case of {CH2CO}-Y[NMeA]NP[Dap]L[Hyp]WGW[NMeNle][NMeNle]LCG-cyclopropylamide (thioether N-14, Macrocyclic peptide) [Example 13091], the IC50 in assay [1] lay in the range of 4 to 9.9 nM.
For {CH2CO}-Y[NMeA]NP[Dap]L[Hyp]WGW[NMeNle][NMeNle]LCG-{4‑phenylpiperidine amide} (thioether N-14, Macrocyclic peptide) [Example 13088], the IC50 in assay [2] stood at 50 nM.
For {CH2CO}-Y[NMeA]NP[Dap]L[Hyp]WGW[NMeNle][NMeNle]LCG-{3‑aminopropanamide} (thioether N-14, Macrocyclic peptide) [Example 13110], the IC50 in assay [1] was in the range of 4 to 9.9 nM.
